Numbering of substitutions follows the chain as printed. In names and notes the source's numbering stands.

B1: DNM2^ΔDEE-EGFP (enzyme, rat, UniProt P39052-1 1-870, looked up)
chain: MGNRGMEELIPLVNKLQDAFSSIGQSCHLDLPQIAVVGGQSAGKSSVLENFVGRDFLPRGSGIVTRRPLILQLIFSKTEYAEFLHCKSKKFTDFDEVRQEIEAETDRVTGTNKGISPVPINLRVYSPHVLNLTLIDLPGITKVPVGDQPPDIEYQIKDMILQFISRESSLILAVTPANMDLANSDALKLAKEVDPQGLRTIGVITKLDLMDEGTDARDVLENKLLPLRRGYIGVVNRSQKDIEGRKDIRAALAAERKFFLSHPAYRHMADRMGTPHLQKTLNQQLTNHIRESLPTLRSKLQSQLLSLEKEVEEYKNFRPDDPTRKTKALLQMVQQFGVDFEKRIEGSGDQVDTLELSGGARINRIFHERFPFELVKMEFDEKDLRREISYAIKNIHGVRTGLFTPDLAFEAIVKKQVVKLKEPCLKCVDLVIQELISTVRQCTSKLSSYPRLREETERIVTTYIREREGRTKDQILLLIDIEQSYINTNHEDFIGFANAQQRSTQLNKKRAIPNQGEILVIRRGWLTINNISLMKGGSKEYWFVLTAESLSWYKEKEKKYMLPLDNLKIRDVEKGFMSNKHVFAIFNTEQRNVYKDLRQIELACDSQEDVDSWKASFLRAGVYPEKDQAENEDGAQENTFSMDPQLERQVETIRNLVDSYVAIINKSIRDLMPKTIMHLMINNTKAFIHHELLAYLYSSADQSSLMEESAEQAQRRDDMLRMYHALKEALNIIGDISTSTVSTPVPPPVDDTWLQNTSSHSPTPQRRPVSSVHPPGRPPAVRGPTPGPPLIPMPVGATSSFSAPPIPSRPGPQNVFANNDPFSAPPQIPSRPARIPPGIPPGVPSRRAPAAPSRPTIIRPAEPSLLD
notes: dynamin 2, rat, isoform 1 (ba, IIBA), UniProtKB P39052-1, with the CMT-linked deletion of residues 555DEE557; Deletion introduced into the EGFP-tagged DNM2^WT template; also called EGFP-tagged DNM2^Δ ^DEE; source: expressed in U2OS cells (brightness analysis); NIH-3T3 cells (FLIM-FRET); not shown: EGFP, C-terminal, kept
B2: DNM2^WT-EGFP (enzyme, rat, UniProt P39052-1 1-870, looked up)
chain: MGNRGMEELIPLVNKLQDAFSSIGQSCHLDLPQIAVVGGQSAGKSSVLENFVGRDFLPRGSGIVTRRPLILQLIFSKTEYAEFLHCKSKKFTDFDEVRQEIEAETDRVTGTNKGISPVPINLRVYSPHVLNLTLIDLPGITKVPVGDQPPDIEYQIKDMILQFISRESSLILAVTPANMDLANSDALKLAKEVDPQGLRTIGVITKLDLMDEGTDARDVLENKLLPLRRGYIGVVNRSQKDIEGRKDIRAALAAERKFFLSHPAYRHMADRMGTPHLQKTLNQQLTNHIRESLPTLRSKLQSQLLSLEKEVEEYKNFRPDDPTRKTKALLQMVQQFGVDFEKRIEGSGDQVDTLELSGGARINRIFHERFPFELVKMEFDEKDLRREISYAIKNIHGVRTGLFTPDLAFEAIVKKQVVKLKEPCLKCVDLVIQELISTVRQCTSKLSSYPRLREETERIVTTYIREREGRTKDQILLLIDIEQSYINTNHEDFIGFANAQQRSTQLNKKRAIPNQGEILVIRRGWLTINNISLMKGGSKEYWFVLTAESLSWYKDEEEKEKKYMLPLDNLKIRDVEKGFMSNKHVFAIFNTEQRNVYKDLRQIELACDSQEDVDSWKASFLRAGVYPEKDQAENEDGAQENTFSMDPQLERQVETIRNLVDSYVAIINKSIRDLMPKTIMHLMINNTKAFIHHELLAYLYSSADQSSLMEESAEQAQRRDDMLRMYHALKEALNIIGDISTSTVSTPVPPPVDDTWLQNTSSHSPTPQRRPVSSVHPPGRPPAVRGPTPGPPLIPMPVGATSSFSAPPIPSRPGPQNVFANNDPFSAPPQIPSRPARIPPGIPPGVPSRRAPAAPSRPTIIRPAEPSLLD
notes: dynamin 2, rat, isoform 1 (ba, IIBA), UniProtKB P39052-1; The template cDNAs carried C-terminal His6 tags; also called EGFP-tagged DNM2^WT; source: expressed in U2OS cells (brightness analysis); NIH-3T3 cells (FLIM-FRET); not shown: EGFP, C-terminal, kept
B3: DNM2^A618T-EGFP (enzyme, rat, UniProt P39052-1 1-870, looked up)
chain: B2 chain with A618T
notes: dynamin 2, rat, isoform 1 (ba, IIBA), UniProtKB P39052-1, with the CNM-linked mutation A618T; The template cDNAs carried C-terminal His6 tags; also called EGFP-tagged DNM2^A618T; source: expressed in U2OS cells; not shown: EGFP, C-terminal, kept
B4: DNM2^K562E-EGFP (enzyme, rat, UniProt P39052-1 1-870, looked up)
chain: B2 chain with K562E
notes: dynamin 2, rat, isoform 1 (ba, IIBA), UniProtKB P39052-1, with the CMT-linked mutation K562E; The template cDNAs carried C-terminal His6 tags; also called EGFP-tagged DNM2^K562E; source: expressed in U2OS cells; not shown: EGFP, C-terminal, kept

The series deals with the molecule itself. Nature of the series: fluorescence fluctuation spectroscopy (brightness analysis); EGFP-tagged dynamins in the cytosol of living U2OS cells, as a function of concentration; two-photon excitation at 1,000 nm; brightness normalised to monomeric EGFP.
A word on the stoichiometry N: it is a count of units in the complex or per binding partner. B1: the “stoichiometry N” value was around 4.
For the protein B2, the “stoichiometry N” value was around 4.
Under B3 stands 20 to 24.
In the case of B4, the “stoichiometry N” value is around 4.

(Values after article PMC8563704, “Gain-of-Function Properties of a Dynamin 2 Mutant Implicated in Charcot-Marie-Tooth Disease” (Frontiers in Cellular Neuroscience, 2021).)
